Laboratory results: the RNAGym collection of RNA variant scans (doi:10.7554/elife.90254)

B1: LINE1-full (parent)
chain: UACGUAGGUGGUUUUCCCCUGAUAGUGCUAAGGGGGCCUGGAAGUUUGGACUGGGCAGAGCUCAACACAGCGUGGCAAAGUGGCUGUGGCUAGACUGCCUCUCUGGAUUCCUCGUCACUCAGCAGGGCAUCUCUGAGAGAAAUGCC

Variants of: B1
Assay: self-cleavage, relative activity (ratio to wild type); higher = more cleavage; in vitro, sequencing; the parent is a self-cleaving ribozyme
For UACGUAGGUGGUUUUCCCCUGAUAGUGCUAAGGGGGCCUGGAAGCUUGGACUGGGCAGAGCUCAACACAGCGUGGCAAAGUGGCUGUGGCUAGACUGCCUCUCUGGAUUCCUCGUCACUCAGCAGGGCAUCUCUGAGAGAAAUGUC [U45C C145U], the self-cleavage was 1.5. For UACGUAGGUGGUUUUCCCCUGAUAGUGCUAAGGGGGCCUGGAAGCUUGGACUGGGCAGAGCUCAACACAGCGUGGCAAAGUGGCUGUGGCUAGACUGCCUCUCUGGAUUCCUUGUCACUCAGCAGGGCAUCUCUGAGAGAAAUGCC [U45C C113U], the self-cleavage was 1.15. For UACGUAGGUGGUUUUCCCCUGAUAGUGCUAAGGGGGCCUGGAAGCUUGGACUGGGCAGAGCUCAACACAGCGUGGCAAAGUGGCUGUGGCUAGACUGCCUCUCUGGAUUCCUAGUCACUCAGCAGGGCAUCUCUGAGAGAAAUGCC [U45C C113A], the self-cleavage was 2.37. UACGUAGGUGGUUUUCCCCUGAUAGUGCUAAGGGGGCCUGGAAGCUUGGACUGGGCAGAGCUCAACACAGCGUGGCAAAGUGGCUGUGGCUAGACUGCCUCUCUGGAUUCCUCGUCACUCAGCAGGGCAUCUCUGAGAGCAAUGCC [U45C A140C] gave a self-cleavage of 2.27. UACGUAGGUGGUUUUCCCCUGAUAGUGCUAAGGGGGCCUGGAAGCUUGGACUGGGCAGAGCUCAACACAGCGUGGCAAAGUGGCUGUGGCUAGACUGCCUCUCUGGAUUCCUCGUCACUCAGCAGGGCAUCUCUGAGAGGAAUGCC [U45C A140G] gave a self-cleavage of 1.41. Work on UACGUAGGUGGUUUUCCCCUGAUAGUGCUAAGGGGGCCUGGAAGCUUGGACUGGGCAGAGCUUAACACAGCGUGGCAAAGUGGCUGUGGCUAGACUGCCUCUCUGGAUUCCUCGUCACUCAGCAGGGCAUCUCUGAGAGAAAUGCC [U45C C63U] yielded a self-cleavage of 0.18. In the case of UACGUAGGUGGUUUUCCCCUGAUAGUGCUAAGGGGGCCUGGAAGCUUGGACUGGGCAGAGCUAAACACAGCGUGGCAAAGUGGCUGUGGCUAGACUGCCUCUCUGGAUUCCUCGUCACUCAGCAGGGCAUCUCUGAGAGAAAUGCC [U45C C63A], the self-cleavage is reported as 0.11. With UACGUAGGUGGUUUUCCCCUGAUAGUGCUAAGGGGGCCUGGAAGCUUGGACUGGGCAGACCUCAACACAGCGUGGCAAAGUGGCUGUGGCUAGACUGCCUCUCUGGAUUCCUCGUCACUCAGCAGGGCAUCUCUGAGAGAAAUGCC [U45C G60C] the self-cleavage was 0.03. UACGUAGGUGGUUUUCCCCUGAUAGUGCUAAGGGGGCCUGGAAGCUUGGACUGGGCAGAUCUCAACACAGCGUGGCAAAGUGGCUGUGGCUAGACUGCCUCUCUGGAUUCCUCGUCACUCAGCAGGGCAUCUCUGAGAGAAAUGCC [U45C G60U] gave a self-cleavage of 0.02. UACGUAGGUGGUUUUCCCCUGAUAGUGCUAAGGGGGCCUGGAAGCUUUGACUGGGCAGAGCUCAACACAGCGUGGCAAAGUGGCUGUGGCUAGACUGCCUCUCUGGAUUCCUCGUCACUCAGCAGGGCAUCUCUGAGAGAAAUGCC [U45C G48U] gave a self-cleavage of 0.9. Variant UACGUAGGUGGUUUUCCCCUGAUAGUGCUAAGGGGGCCUGGAAGCUUGGACUGGGCAGAGCUCAACACAGCGUGGCAAAGUGGCUGUGGCUAGACUGCCUCUCUGGAUUCCUCGUCACUCAGCAGGGCAUCUCUGAGAGAAGUGCC [U45C A142G] has a self-cleavage of 1.26. Variant UACGUAGGUGGUUUUCCCCUGAUAGUGCUAAGGGGGCCUGGAAGCUUGGACUGGGCAGAGCUCAACACAGCGUGGCAAAGUGGCUGUGGCUAGACUGCCUCUCUGGAUUCCUCGUCACUCAGCAGGGCAUCUCUGAGAGAGAUGCC [U45C A141G] has a self-cleavage of 1.37. UACGUAGGUGGUUUUCCCCUGAUAGUGCUAAGGGGGCCUGGAAGCUUGGACUGGGCAGAGUUCAACACAGCGUGGCAAAGUGGCUGUGGCUAGACUGCCUCUCUGGAUUCCUCGUCACUCAGCAGGGCAUCUCUGAGAGAAAUGCC [U45C C61U] showed a self-cleavage of 0.09. UACGUAGGUGGUUUUCCCCUGAUAGUGCUAAGGGGGCCUGGAAGCUUGGACUGGGCAGAGCUCAACACAGCGUGGCAAAGUGGCUGUGGCUAGAUUGCCUCUCUGGAUUCCUCGUCACUCAGCAGGGCAUCUCUGAGAGAAAUGCC [U45C C95U] gave a self-cleavage of 0.2. UACGUAGGUGGUUUUCCCCUGAUAGUGCUAAGGGGGCCUGGAAGCUUGGACUGGGCAGAGCUCAACACAGCGUGGCAAAGUGGCUGUGGCUAGACUGCCUCUCUGGAUUCCUCGUCACUCAGCGGGGCAUCUCUGAGAGAAAUGCC [U45C A124G] gave a self-cleavage of 1.18. For UACGUAGGUGGUUUUCCCCUGAUAGUGCUAAGGGGGCCUGGAAGCUUGGACUGGGCAGAGCUCAACACAGCGUGGCAAAGUGGCUGUGGCUAGACUGCCUCUCUGGAUUCCUCGUCACUCAGCUGGGCAUCUCUGAGAGAAAUGCC [U45C A124U], the self-cleavage was 1.58. Work on UACGUAGGUGGUUUUCCCCUGAUAGUGCUAAGGGGGCCUGGAAGCUUGGACUGGGCAGAGCUCAACACAGCGUAGCAAAGUGGCUGUGGCUAGACUGCCUCUCUGGAUUCCUCGUCACUCAGCAGGGCAUCUCUGAGAGAAAUGCC [U45C G74A] yielded a self-cleavage of 1.25. Work on UACGUAGGUGGUUUUCCCCUGAUAGUGCUAAGGGGGCCUGGAAGCUUGGACUGGGCAGAGCUCAACACAGCGUGGCAAAGUGGCUGUGGCUAGACUGCCUCUCUGGGUUCCUCGUCACUCAGCAGGGCAUCUCUGAGAGAAAUGCC [U45C A107G] yielded a self-cleavage of 1.73. With UACGUAGGUGGUUUUCCCCUGAUAGUGCUAAGGGGGCCUGGAAGCUUGGACUGGCCAGAGCUCAACACAGCGUGGCAAAGUGGCUGUGGCUAGACUGCCUCUCUGGAUUCCUCGUCACUCAGCAGGGCAUCUCUGAGAGAAAUGCC [U45C G55C] the self-cleavage was 0.1. UACGUAGGUGGUUUUCCCCUGAUAGUGCUAAGGGGGCCUGGAAGCUUGGACUGGACAGAGCUCAACACAGCGUGGCAAAGUGGCUGUGGCUAGACUGCCUCUCUGGAUUCCUCGUCACUCAGCAGGGCAUCUCUGAGAGAAAUGCC [U45C G55A] gave a self-cleavage of 0.27. UACGUAGGUGGUUUUCCCCUGAUAGUGCUAAGGGGGCCUGGAAGCUUGGACUGGGCAGAGCUCAACACAGCGUGGCAAAGUGGCUGUGGCUAGACUGCCUCUCUGGAUUCCUCGUCACUCAGCAGGGCAUCUCUGAGAGAAAUGCU [U45C C146U] showed a self-cleavage of 2.99. In the case of UACGUAGGUGGUUUUCCCCUGAUAGUGCUAAGGGGGCCUGGAAGCUUGGACUGGGCAGAGCUCAACACAGCGUGGCAAAGUGGCUGUGGCUAGACUGCCUCUCUGGAUUCCUCGUCACUCAGCAGGGCAUCUCUGAGAGAAAUGCA [U45C C146A], the self-cleavage is reported as 1.56. Variant UACGUAGGUGGUUUUCCCCUGAUAGUGCUAAGGGGGCCUGGAAGCUUGAACUGGGCAGAGCUCAACACAGCGUGGCAAAGUGGCUGUGGCUAGACUGCCUCUCUGGAUUCCUCGUCACUCAGCAGGGCAUCUCUGAGAGAAAUGCC [U45C G49A] has a self-cleavage of 0.77. UACGUAGGUGGUUUUCCCCUGAUAGUGCUAAGGGGGCCUGGAAGCUUGGACUGGGCAGAGCUCAACACAGCGUGGCAAAGUGGCUGUGGCUAGACUGCCUCUCUGGAUUCCUCGUCACUCAGCAGGGCAUCUCUGAGUGAAAUGCC [U45C A138U] showed a self-cleavage of 1.48. UACGUAGGUGGUUUUCCCCUGAUAGUGCUAAGGGGGCCUGGAAGCUUGGACUGGGCAGAGCUCAACACAGCGUGGCAAAGUGGCUGUGGCUAGACUGCCUCUCUGGAUUCCUCGUCACUCAGCAGGGCAUCUCUGAGCGAAAUGCC [U45C A138C] gave a self-cleavage of 1.44. UACGUAGGUGGUUUUCCCCUGAUAGUGCUAAGGGGGCCUGGAAGCUUGGACUGGGCAGAGCUCAACACAGCGUGGCAAAGUGGCUGUGGCUAGACUGCCUCUCUGGAUUCCUCGUCACUCAGCAGGGCAUCUCUGAGGGAAAUGCC [U45C A138G] showed a self-cleavage of 1.47. With UACGUAGGUGGUUUUCCCCUGAUAGUGCUAAGGGGGCCUGGAAGCUUGGACUGGGCAGAGCUCAACACAGCGUGGAAAAGUGGCUGUGGCUAGACUGCCUCUCUGGAUUCCUCGUCACUCAGCAGGGCAUCUCUGAGAGAAAUGCC [U45C C76A] the self-cleavage was 1.22. Variant UACGUAGGUGGUUUUCCCCUGAUAGUGCUAAGGGGGCCUGGAAGCUUGGACUGGGCAGAGCUCAACACAGCGUGGCAAAGUGGCUGUGGCUGGACUGCCUCUCUGGAUUCCUCGUCACUCAGCAGGGCAUCUCUGAGAGAAAUGCC [U45C A92G] has a self-cleavage of 0.08. For UACGUAGGUGGUUUUCCCCUGAUAGUGCUAAGGGGGCCUGGAAGCUUGGACUGUGCAGAGCUCAACACAGCGUGGCAAAGUGGCUGUGGCUAGACUGCCUCUCUGGAUUCCUCGUCACUCAGCAGGGCAUCUCUGAGAGAAAUGCC [U45C G54U], the self-cleavage was 0.11. Work on UACGUAGGUGGUUUUCCCCUGAUAGUGCUAAGGGGGCCUGGAAGCUUGGACUGGGCAGAGCUCAACACAGCGUGGCAAAGUGGCUGUGGCUAGACUGCCUCUCUGGAUUCCUCGUUACUCAGCAGGGCAUCUCUGAGAGAAAUGCC [U45C C116U] yielded a self-cleavage of 1.36. With UACGUAGGUGGUUUUCCCCUGAUAGUGCUAAGGGGGCCUGGAAGCUUGGACUGGGCAGAGCUCAACACAUCGUGGCAAAGUGGCUGUGGCUAGACUGCCUCUCUGGAUUCCUCGUCACUCAGCAGGGCAUCUCUGAGAGAAAUGCC [U45C G70U] the self-cleavage was 0.06. With UACGUAGGUGGUUUUCCCCUGAUAGUGCUAAGGGGGCCUGGAAGCUUGGACUGGGCAGAGCUCAACACAGCGUGGCAAAGUGGCUGUGGCUAGACUGCCUCUCUGGAUUCUUCGUCACUCAGCAGGGCAUCUCUGAGAGAAAUGCC [U45C C111U] the self-cleavage was 1.51. In the case of UACGUAGGUGGUUUUCCCCUGAUAGUGCUAAGGGGGCCUGGAAGCUUGGACUGGGCAGAGCUCAACACAGCGUGGCAAAGUGGCUGUGGCUAGACUGCCUCUCUGGAUUCCUCGUCACUCAGCAGGGCAUUUCUGAGAGAAAUGCC [U45C C131U], the self-cleavage is reported as 0.93. With UACGUAGGUGGUUUUCCCCUGAUAGUGCUAAGGGGGCCUGGAAGCUUGGACUGGGCAGAGCUCAACACAGCGUGGCAAAGUGGCUGUGGCUAGACUGCCUCUCUGGAUUCCUCGUCUCUCAGCAGGGCAUCUCUGAGAGAAAUGCC [U45C A117U] the self-cleavage was 1.36. Variant UACGUAGGUGGUUUUCCCCUGAUAGUGCUAAGGGGGCCUGGAAGCUUGGACUGGGCAGAGCUCAACACAGCGUGGCAAAGUGGCUGUGGCUAGACUGCCUCUCUGGAUUCCUCGUCCCUCAGCAGGGCAUCUCUGAGAGAAAUGCC [U45C A117C] has a self-cleavage of 2.57. Work on UACGUAGGUGGUUUUCCCCUGAUAGUGCUAAGGGGGCCUGGAAGCUUGGACUGGGCAGAGCUCAACACAGCGUGGCAAAGUGGCUGUGGCUAGACUGCCUCUCUGGAUUCCUCGUCACUUAGCAGGGCAUCUCUGAGAGAAAUGCC [U45C C120U] yielded a self-cleavage of 1.45. Work on UACGUAGGUGGUUUUCCCCUGAUAGUGCUAAGGGGGCCUGGAAGCUUGGACUGGGCAGAGCUCAAAACAGCGUGGCAAAGUGGCUGUGGCUAGACUGCCUCUCUGGAUUCCUCGUCACUCAGCAGGGCAUCUCUGAGAGAAAUGCC [U45C C66A] yielded a self-cleavage of 0.19. In the case of UACGUAGGUGGUUUUCCCCUGAUAGUGCUAAGGGGGCCUGGAAGCUUGGACUGGGCAGAGCUCAACACAGCGUGGCAAAGUGGCUGUGGCUAGGCUGCCUCUCUGGAUUCCUCGUCACUCAGCAGGGCAUCUCUGAGAGAAAUGCC [U45C A94G], the self-cleavage is reported as 0.3. UACGUAGGUGGUUUUCCCCUGAUAGUGCUAAGGGGGCCUGGAAGCUUGGACUGGGCAGAGCUCAACACAGCGUGGCAAAGUGGCUGUGGCUAGCCUGCCUCUCUGGAUUCCUCGUCACUCAGCAGGGCAUCUCUGAGAGAAAUGCC [U45C A94C] gave a self-cleavage of 0.04.
